In patent publication US20240101673A1 (MOZART THERAPEUTICS, published 2024):
Blank lines part the entries; values can stand above or below the binder they belong to.

How the values were obtained:
[1] = biological target: CD8 (Homo sapiens); assay: titration on CD8+ T cells, gMFI (flow cytometry)
[2] = biological target: CD8 (Homo sapiens); assay: titration on the CXCR3 CD39 CD8 T cell subset, gMFI (flow cytometry)
[3] = biological target: T1, CD8alpha tagged with a hexahistidine peptide (UniProt P01732 22-182, limits assumed); assay: BLI (Octet), antibody captured on AHC anti-human Fc biosensors, analyte 6.25-200 nM
T1 construct: Soluble analyte in the Octet assays; not shown: hexahistidine tag (HHHHHH)
T1 sequence (P01732 22-182 limits assumed): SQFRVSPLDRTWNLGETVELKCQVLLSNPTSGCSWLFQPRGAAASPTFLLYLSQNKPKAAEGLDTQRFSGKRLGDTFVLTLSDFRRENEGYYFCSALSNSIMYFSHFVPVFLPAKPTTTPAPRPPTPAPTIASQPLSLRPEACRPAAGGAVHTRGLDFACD
Description: The affinities of the parental antibodies anti-KIR2DL1/L2/L3 IPH2102 IgG1 r mAb and anti-CD8alpha Mb1 b IgG1r mAb were also analyzed. For kinetic analysis, the parental antibodies were separately captured to AHC (anti-human Fc) biosensors using a load concentration of 1.25 ug/ml. For IPH2102 IgG1r mAb, the KIR2DL1, or KIR2DL3 analytes ranged from 6.25 nM to 200 nM. Analyte binding following capture was analyzed first for association of KIR2DL1 or KIR2DL3 followed by the dissociation of each analyte independently. Likewise, for the Mb1b IgG1r mAb, the CD8alpha analyte ranged from 6.25 nM to 200 nM. Analyte binding following capture was analyzed first for association followed by the dissociation of CD8alpha.

[4] = biological target: T2, KIR2DL1 tagged with a hexahistidine peptide (UniProt P43626 22-245, limits assumed); assay: BLI (Octet), CrossMAb captured on AHC anti-human Fc biosensors, analyte 6.25-200 nM
T2 construct: Soluble analyte in the Octet assays; also called KIRDL1; not shown: hexahistidine tag (HHHHHH)
T2 sequence (P43626 22-245 limits assumed): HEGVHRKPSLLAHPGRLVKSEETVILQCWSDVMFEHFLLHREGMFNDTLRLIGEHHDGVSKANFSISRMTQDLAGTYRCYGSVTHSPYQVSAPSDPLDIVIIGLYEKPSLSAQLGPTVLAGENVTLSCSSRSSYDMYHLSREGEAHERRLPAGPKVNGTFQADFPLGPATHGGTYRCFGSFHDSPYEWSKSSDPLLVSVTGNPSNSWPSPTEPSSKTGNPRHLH

[5] = biological target: T3, KIR2DL3 tagged with a hexahistidine peptide (UniProt P43628 22-245, limits assumed); assay: as above
T3 construct: Soluble analyte in the Octet assays; not shown: hexahistidine tag (HHHHHH)
T3 sequence (P43628 22-245 limits assumed): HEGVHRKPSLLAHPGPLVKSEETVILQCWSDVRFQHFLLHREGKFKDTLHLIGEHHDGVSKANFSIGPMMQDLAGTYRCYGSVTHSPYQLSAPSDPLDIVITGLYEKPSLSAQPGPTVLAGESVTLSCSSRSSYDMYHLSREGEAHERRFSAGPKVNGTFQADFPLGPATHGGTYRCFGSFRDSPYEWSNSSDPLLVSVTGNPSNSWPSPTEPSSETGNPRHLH

[6] = biological target: T1, CD8alpha tagged with a hexahistidine …; assay: as above

Chain of CD8 (Homo sapiens) (chain, as listed by the source): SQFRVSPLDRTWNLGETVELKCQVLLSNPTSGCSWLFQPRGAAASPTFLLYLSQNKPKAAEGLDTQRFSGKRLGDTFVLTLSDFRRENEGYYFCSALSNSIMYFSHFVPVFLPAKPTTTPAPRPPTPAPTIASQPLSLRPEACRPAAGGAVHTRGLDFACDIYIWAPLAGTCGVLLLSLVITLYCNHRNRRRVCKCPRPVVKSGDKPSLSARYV

EC50 (read off the curve) [1]: ~40 nM
EC50 (read off the curve) [2]: ~100 nM
B1: KIR2DLxCD8 bispecific (bispecific antibody)
chain 1: QVQLVQSGAEVKKPGSSVKVSCKASGGTFSFYAISWVRQAPGQGLEWMGGFIPIFGAANYAQKFQGRVTITADESTSTAYMELSSLRSDDTAVYYCARIPSGSYYYDYDMDVWGQGTTVTVSS
chain 2: EIVLTQSPVTLSLSPGERATLSCRASQSVSSYLAWYQQKPGQAPRLLIYDASNRATGIPARFSGSGSGTDFTLTISSLEPEDFAVYYCQQRSNWMYTFGQGTKLEIK
chain 3: EVQLVESGGGLVQPGGSLRLSCAASGFNIKDTYIHFVRQAPGKGLEWIGRIDPANDNTLYASKFQGKATISADTSKNTAYLQMNSLRAEDTAVYYCGRGYGYYVFDHWGQGTLVTVSS
chain 4: DVQITQSPSSLSASVGDRVTITCRTSRSISQYLAWYQQKPGKVPKLLIYSGSTLQSGVPSRFSGSGSGTDFTLTISSLQPEDVATYYCQQHNENPLTFGGGTKVEIK

Kd [3]: 2.6 nM
B2: Mb1b IgG1 r mAb (antibody, V domains shown)
VH: EVQLVESGGGLVQPGGSLRLSCAASGFNIKDTYIHFVRQAPGKGLEWIGRIDPANDNTLYASKFQGKATISADTSKNTAYLQMNSLRAEDTAVYYCGRGYGYYVFDHWGQGTLVTVSS
VL: DVQITQSPSSLSASVGDRVTITCRTSRSISQYLAWYQQKPGKVPKLLIYSGSTLQSGVPSRFSGSGSGTDFTLTISSLQPEDVATYYCQQHNENPLTFGGGTKVEIK
notes: also called Mb1b parental antibody; anti-CD8alpha Mb1 b IgG1r mAb

Kd [4]: 1.52 nM
Kd [5]: 0.88 nM
Kd [6]: 2.07 nM
B3: IPH2102/Mb1b CrossMAb (bispecific antibody)
chain 1: QVQLVQSGAEVKKPGSSVKVSCKASGGTFSFYAISWVRQAPGQGLEWMGGFIPIFGAANYAQKFQGRVTITADESTSTAYMELSSLRSDDTAVYYCARIPSGSYYYDYDMDVWGQGTTVTVSS
chain 2: EIVLTQSPVTLSLSPGERATLSCRASQSVSSYLAWYQQKPGQAPRLLIYDASNRATGIPARFSGSGSGTDFTLTISSLEPEDFAVYYCQQRSNWMYTFGQGTKLEIK
chain 3: EVQLVESGGGLVQPGGSLRLSCAASGFNIKDTYIHFVRQAPGKGLEWIGRIDPANDNTLYASKFQGKATISADTSKNTAYLQMNSLRAEDTAVYYCGRGYGYYVFDHWGQGTLVTVSS
chain 4: DVQITQSPSSLSASVGDRVTITCRTSRSISQYLAWYQQKPGKVPKLLIYSGSTLQSGVPSRFSGSGSGTDFTLTISSLQPEDVATYYCQQHNENPLTFGGGTKVEIK
